The data set concerns Escherichia coli TOP10. The data set is described as follows: shrunken log2 fold change of peptide-encoding DNA abundance (4.5 h post-induction vs induction); higher = less antimicrobial activity (less host growth inhibition). To be noted: time post-induction: 4.5 h; library: site-saturation at positions 5, 18, 19, 20.
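Further: peptides expressed intracellularly from a pBAD plasmid library in pooled LB shake-flask culture, induced with 0.3% L-arabinose, DNA abundance read by NGS, three biological replicates, DESeq2 with apeglm shrinkage.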

As to RRIRNRPPRLPRPRPRPKAEPRP, the “shrunken log2 fold change” value is 0.153.

As for RRIRARPPRLPRPRPRPDFEPRP, the “shrunken log2 fold change” value was found to be 0.661.

Consider RRIRRRPPRLPRPRPRPLFKPRP, for which the “shrunken log2 fold change” value was -0.00471.

For the sequence RRIRWRPPRLPRPRPRPELSPRP, the “shrunken log2 fold change” value amounted to 0.101.

Consider RRIRRRPPRLPRPRPRPKLEPRP, for which the “shrunken log2 fold change” value was determined as 0.297.

Regarding RRIRGRPPRLPRPRPRPYRQPRP, the “shrunken log2 fold change” value was -0.401.

On to RRIRERPPRLPRPRPRPFTWPRP, for which the “shrunken log2 fold change” value is -0.737.

As to RRIRARPPRLPRPRPRPSTRPRP, the “shrunken log2 fold change” value was found to be 0.23.

As for RRIRWRPPRLPRPRPRPLCSPRP, the “shrunken log2 fold change” value stood at 0.13.

As for RRIRCRPPRLPRPRPRPFKLPRP, the “shrunken log2 fold change” value is -0.62.

For RRIRVRPPRLPRPRPRPNISPRP, the “shrunken log2 fold change” value is -0.321.

As for RRIRMRPPRLPRPRPRPNILPRP, the “shrunken log2 fold change” value came to 0.057.

In the case of RRIRQRPPRLPRPRPRPNPMPRP, the “shrunken log2 fold change” value is -0.00515.

Turning to RRIRDRPPRLPRPRPRPTENPRP, the “shrunken log2 fold change” value worked out at 0.277.

Consider RRIRGRPPRLPRPRPRPHGTPRP, for which the “shrunken log2 fold change” value is 0.331.

Regarding RRIRFRPPRLPRPRPRPMIIPRP, the “shrunken log2 fold change” value is -0.871.

For RRIRNRPPRLPRPRPRPDCHPRP, the “shrunken log2 fold change” value was determined as 0.081.

For RRIRFRPPRLPRPRPRPVWGPRP, the “shrunken log2 fold change” value was 0.311.

As for RRIRPRPPRLPRPRPRPVQCPRP, the “shrunken log2 fold change” value is -0.0846.

With RRIRIRPPRLPRPRPRPGIFPRP, the “shrunken log2 fold change” value was -0.5.

On to RRIRWRPPRLPRPRPRPNRYPRP, for which the “shrunken log2 fold change” value was found to be 0.0333.

For the sequence RRIRNRPPRLPRPRPRPDDCPRP, the “shrunken log2 fold change” value is -0.108.

Regarding RRIRRRPPRLPRPRPRPSCLPRP, the “shrunken log2 fold change” value was -0.172.

For the sequence RRIRTRPPRLPRPRPRPSYHPRP, the “shrunken log2 fold change” value is -0.833.

RRIRWRPPRLPRPRPRPWITPRP: the “shrunken log2 fold change” value is -0.0174.

Consider RRIRQRPPRLPRPRPRPWGLPRP, for which the “shrunken log2 fold change” value was determined as 0.211.

As for RRIRSRPPRLPRPRPRPCLAPRP, the “shrunken log2 fold change” value was 0.0253.

On to RRIRERPPRLPRPRPRPQYFPRP, for which the “shrunken log2 fold change” value is -0.891.

Consider RRIRKRPPRLPRPRPRPQLMPRP, for which the “shrunken log2 fold change” value came to 1.59.

In the case of RRIRVRPPRLPRPRPRPRGWPRP, the “shrunken log2 fold change” value was 0.666.

RRIRYRPPRLPRPRPRPKVGPRP: the “shrunken log2 fold change” value is 0.0316.

On to RRIRHRPPRLPRPRPRPGFVPRP, for which the “shrunken log2 fold change” value was 0.607.

In the case of RRIRERPPRLPRPRPRPTQSPRP, the “shrunken log2 fold change” value was determined as 0.329.

With RRIRVRPPRLPRPRPRPHEYPRP, the “shrunken log2 fold change” value was -0.419.

Take RRIRQRPPRLPRPRPRPFDQPRP: the “shrunken log2 fold change” value is -0.0498.

In the case of RRIRKRPPRLPRPRPRPEWNPRP, the “shrunken log2 fold change” value is 0.599.

On to RRIRDRPPRLPRPRPRPRHVPRP, for which the “shrunken log2 fold change” value worked out at 0.153.

As for RRIRLRPPRLPRPRPRPFQYPRP, the “shrunken log2 fold change” value is -0.182.

For RRIRHRPPRLPRPRPRPTNAPRP, the “shrunken log2 fold change” value was -0.463.

In the case of RRIRVRPPRLPRPRPRPPWEPRP, the “shrunken log2 fold change” value came out at 0.252.

With RRIRARPPRLPRPRPRPCHSPRP, the “shrunken log2 fold change” value amounted to 0.0213.

RRIRNRPPRLPRPRPRPSIQPRP: the “shrunken log2 fold change” value was -0.623.

On to RRIRIRPPRLPRPRPRPRDFPRP, for which the “shrunken log2 fold change” value was -0.157.

RRIRTRPPRLPRPRPRPCYEPRP: the “shrunken log2 fold change” value is -0.549.

On to RRIRFRPPRLPRPRPRPAGRPRP, for which the “shrunken log2 fold change” value amounted to 0.294.

In the case of RRIRSRPPRLPRPRPRPRCMPRP, the “shrunken log2 fold change” value is -0.0959.

Consider RRIRWRPPRLPRPRPRPENTPRP, for which the “shrunken log2 fold change” value is 0.167.

On to RRIRRRPPRLPRPRPRPWHDPRP, for which the “shrunken log2 fold change” value worked out at 0.0389.

As to RRIRVRPPRLPRPRPRPQYIPRP, the “shrunken log2 fold change” value was -0.655.

With RRIRNRPPRLPRPRPRPQLRPRP, the “shrunken log2 fold change” value was 0.0493.

For RRIRLRPPRLPRPRPRPELKPRP, the “shrunken log2 fold change” value stood at 0.0568.

With RRIRNRPPRLPRPRPRPLDYPRP, the “shrunken log2 fold change” value is -0.309.

On to RRIRDRPPRLPRPRPRPHKCPRP, for which the “shrunken log2 fold change” value is -0.372.

In the case of RRIRARPPRLPRPRPRPMKHPRP, the “shrunken log2 fold change” value is -0.00244.

In the case of RRIRPRPPRLPRPRPRPCFRPRP, the “shrunken log2 fold change” value came out at 0.00938.

On to RRIRGRPPRLPRPRPRPRIMPRP, for which the “shrunken log2 fold change” value amounted to 0.506.

As to RRIRYRPPRLPRPRPRPSHDPRP, the “shrunken log2 fold change” value was -0.916.

As to RRIRMRPPRLPRPRPRPTIDPRP, the “shrunken log2 fold change” value amounted to 0.0912.

RRIRDRPPRLPRPRPRPRFEPRP: the “shrunken log2 fold change” value came to 0.0618.

As for RRIRVRPPRLPRPRPRPFGVPRP, the “shrunken log2 fold change” value is -0.179.

As to RRIRMRPPRLPRPRPRPCSTPRP, the “shrunken log2 fold change” value came to 0.477.

In the case of RRIRPRPPRLPRPRPRPREYPRP, the “shrunken log2 fold change” value came out at 0.115.

With RRIRQRPPRLPRPRPRPCWTPRP, the “shrunken log2 fold change” value was -0.0267.

As to RRIRYRPPRLPRPRPRPAFHPRP, the “shrunken log2 fold change” value was -0.518.

Take RRIRCRPPRLPRPRPRPCQMPRP: the “shrunken log2 fold change” value was -0.609.

As to RRIRVRPPRLPRPRPRPRESPRP, the “shrunken log2 fold change” value was 0.259.

Regarding RRIRMRPPRLPRPRPRPWVAPRP, the “shrunken log2 fold change” value turned out to be 0.109.

As to RRIRQRPPRLPRPRPRPVRKPRP, the “shrunken log2 fold change” value is -0.0285.

In the case of RRIRQRPPRLPRPRPRPRMEPRP, the “shrunken log2 fold change” value was -0.194.

For RRIRERPPRLPRPRPRPEHGPRP, the “shrunken log2 fold change” value turned out to be 0.174.

Regarding RRIRSRPPRLPRPRPRPVSTPRP, the “shrunken log2 fold change” value was -0.187.

In the case of RRIRYRPPRLPRPRPRPYLIPRP, the “shrunken log2 fold change” value was -0.554.

RRIRNRPPRLPRPRPRPPWIPRP: the “shrunken log2 fold change” value was -0.0807.

Consider RRIRKRPPRLPRPRPRPMMEPRP, for which the “shrunken log2 fold change” value is -0.00277.

As for RRIRARPPRLPRPRPRPRHCPRP, the “shrunken log2 fold change” value is -0.0733.

Regarding RRIRQRPPRLPRPRPRPTHEPRP, the “shrunken log2 fold change” value came out at 0.881.

Consider RRIRYRPPRLPRPRPRPCCRPRP, for which the “shrunken log2 fold change” value is -0.732.

Turning to RRIRKRPPRLPRPRPRPPSLPRP, the “shrunken log2 fold change” value turned out to be 0.46.

On to RRIRIRPPRLPRPRPRPSFYPRP, for which the “shrunken log2 fold change” value was -0.776.

Turning to RRIRCRPPRLPRPRPRPEWYPRP, the “shrunken log2 fold change” value is -0.256.

With RRIRARPPRLPRPRPRPMLMPRP, the “shrunken log2 fold change” value came to 0.044.

Regarding RRIRPRPPRLPRPRPRPLKEPRP, the “shrunken log2 fold change” value was -0.228.

Consider RRIRFRPPRLPRPRPRPNPVPRP, for which the “shrunken log2 fold change” value is -0.117.

Turning to RRIRCRPPRLPRPRPRPGSCPRP, the “shrunken log2 fold change” value was -0.0844.

As for RRIRHRPPRLPRPRPRPGLFPRP, the “shrunken log2 fold change” value was -0.0985.

For the sequence RRIRSRPPRLPRPRPRPLPGPRP, the “shrunken log2 fold change” value came out at 0.0761.

Turning to RRIRRRPPRLPRPRPRPQNGPRP, the “shrunken log2 fold change” value is -0.0551.

In the case of RRIRCRPPRLPRPRPRPIYGPRP, the “shrunken log2 fold change” value was -0.203.

With RRIRNRPPRLPRPRPRPTFQPRP, the “shrunken log2 fold change” value came out at 0.0675.

In the case of RRIRDRPPRLPRPRPRPQEAPRP, the “shrunken log2 fold change” value is -0.0652.

For RRIRGRPPRLPRPRPRPSQEPRP, the “shrunken log2 fold change” value came out at 0.172.

RRIRRRPPRLPRPRPRPLRPPRP: the “shrunken log2 fold change” value came to 1.18.

Consider RRIRQRPPRLPRPRPRPWNKPRP, for which the “shrunken log2 fold change” value was -0.34.

For the sequence RRIRDRPPRLPRPRPRPMLIPRP, the “shrunken log2 fold change” value is -0.0943.

As for RRIRLRPPRLPRPRPRPEDWPRP, the “shrunken log2 fold change” value worked out at 0.544.

Consider RRIRSRPPRLPRPRPRPPLEPRP, for which the “shrunken log2 fold change” value was 0.367.

RRIRYRPPRLPRPRPRPGFKPRP: the “shrunken log2 fold change” value is -0.579.

With RRIRARPPRLPRPRPRPARAPRP, the “shrunken log2 fold change” value worked out at 0.834.

In the case of RRIRNRPPRLPRPRPRPTWWPRP, the “shrunken log2 fold change” value is 0.326.

Take RRIRHRPPRLPRPRPRPNLLPRP: the “shrunken log2 fold change” value was -0.13.

RRIRARPPRLPRPRPRPYSDPRP: the “shrunken log2 fold change” value is -0.262.

With RRIRDRPPRLPRPRPRPSHCPRP, the “shrunken log2 fold change” value was -0.29.

With RRIRPRPPRLPRPRPRPYRHPRP, the “shrunken log2 fold change” value was -0.483.

RRIRERPPRLPRPRPRPRYNPRP: the “shrunken log2 fold change” value is -0.672.

Regarding RRIRKRPPRLPRPRPRPLQSPRP, the “shrunken log2 fold change” value came out at 0.295.

RRIRIRPPRLPRPRPRPIEDPRP: the “shrunken log2 fold change” value came to 0.0806.

For the sequence RRIRDRPPRLPRPRPRPHVHPRP, the “shrunken log2 fold change” value is -0.134.

In the case of RRIRYRPPRLPRPRPRPNRKPRP, the “shrunken log2 fold change” value was -0.284.

As to RRIRFRPPRLPRPRPRPTGDPRP, the “shrunken log2 fold change” value amounted to 0.127.

As to RRIRFRPPRLPRPRPRPPAEPRP, the “shrunken log2 fold change” value came to 0.606.

With RRIRSRPPRLPRPRPRPKWDPRP, the “shrunken log2 fold change” value is 0.172.

RRIRTRPPRLPRPRPRPPKYPRP: the “shrunken log2 fold change” value is -0.103.

In the case of RRIRTRPPRLPRPRPRPWLSPRP, the “shrunken log2 fold change” value is -0.272.

As to RRIRQRPPRLPRPRPRPGPCPRP, the “shrunken log2 fold change” value is -0.0469.

Consider RRIRDRPPRLPRPRPRPESCPRP, for which the “shrunken log2 fold change” value amounted to 0.629.

Regarding RRIRPRPPRLPRPRPRPPCSPRP, the “shrunken log2 fold change” value is -0.232.

For RRIRVRPPRLPRPRPRPSLEPRP, the “shrunken log2 fold change” value worked out at 0.163.

RRIRKRPPRLPRPRPRPGLSPRP: the “shrunken log2 fold change” value came to 0.0644.

Consider RRIRGRPPRLPRPRPRPNTPPRP, for which the “shrunken log2 fold change” value turned out to be 0.237.

Turning to RRIRYRPPRLPRPRPRPKFPPRP, the “shrunken log2 fold change” value was -1.01.

As for RRIRQRPPRLPRPRPRPLQVPRP, the “shrunken log2 fold change” value was -0.0738.

As for RRIRARPPRLPRPRPRPDWHPRP, the “shrunken log2 fold change” value was determined as 0.136.

On to RRIRGRPPRLPRPRPRPAMRPRP, for which the “shrunken log2 fold change” value came to 1.17.

Regarding RRIRARPPRLPRPRPRPTGRPRP, the “shrunken log2 fold change” value was 0.215.

For the sequence RRIRSRPPRLPRPRPRPQPVPRP, the “shrunken log2 fold change” value amounted to 0.0573.

Values taken from the supplement of paper PMC9112550, “Optimization of the antimicrobial peptide Bac7 by deep mutational scanning” (BMC Biology, 2022).
